{"source": "paper PMC10378328", "about": "“Tissue Inhibitor of Metalloproteinases-1 Interacts with CD74 to Promote AKT Signaling, Monocyte Recruitment Responses, and Vascular Smooth Muscle Cell Proliferation” (Cells, 2023)", "binders": {"B1": {"name": "recombinant human TIMP-1 (tissue inhibitor of metalloproteinases-1) (natural protein)", "chain": "not shown"}}, "molecular_target": "T1, N-terminal FLAG-tagged human CD74 (human, UniProt P04233 1-296)", "T1 sequence (looked up)": "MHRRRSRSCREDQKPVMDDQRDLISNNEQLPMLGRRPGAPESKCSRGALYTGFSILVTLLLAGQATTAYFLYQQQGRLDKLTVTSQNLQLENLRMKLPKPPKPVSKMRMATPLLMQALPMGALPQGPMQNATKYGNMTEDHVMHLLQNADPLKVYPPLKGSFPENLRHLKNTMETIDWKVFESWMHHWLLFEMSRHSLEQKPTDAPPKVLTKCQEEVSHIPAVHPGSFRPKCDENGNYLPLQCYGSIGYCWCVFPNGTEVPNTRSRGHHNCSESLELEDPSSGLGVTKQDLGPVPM", "assay": "cell-based or functional assay", "data": [{"binder": "B1", "values": [{"measurement": "arrest of MonoMac6 cells on a monolayer of human aortic endothelial cells under flow, TIMP-1 at 200 and 400 ng/mL, optimal concentration 200 ng/mL", "value": 2, "unit": "fold"}]}]}
